In publication PMC8122577, “Estrogen-Related Receptor Influences the Hemolymph Glucose Content by Regulating Midgut Trehalase Gene Expression in the Last Instar Larvae of Bombyx mori”:

Assays:
[1] = molecular target: T1, BmERR DBD (Bombyx mori, UniProt A0A1B1M0R7 103-178); assay: EMSA; inhibited by competitive probe; EMSA (Beyotime chemiluminescent kit), 25 °C 20 min; 5% native PAGE in 45 mM Tris-borate, 1 mM EDTA pH 8.3; binding buffer not given; conditions: protein: recombinant; label: 3'-end biotin; blunt
T1 sequence: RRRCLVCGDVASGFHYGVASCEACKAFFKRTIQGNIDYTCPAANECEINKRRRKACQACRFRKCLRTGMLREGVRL

[2] = molecular target: T1, BmERR DBD; assay: EMSA; dose-dependent; reduced by anti-BmERR antibody or competitive probe; EMSA (Beyotime chemiluminescent kit), 25 °C 20 min; 5% native PAGE in 45 mM Tris-borate, 1 mM EDTA pH 8.3; binding buffer not given; conditions: protein: recombinant; label: 3'-end biotin; blunt

B1: ERRE-like CRE 6 (dsDNA)
DNA 1: GCCTACAAGGGCAATAAAA
DNA 2: TTTTATTGCCCTTGTAGGC
Does B1 bind [1]?
Result: binds

B2: ERRE-like CRE 2 (dsDNA)
DNA 1: CATTGGTGACCTACATGGC
DNA 2: GCCATGTAGGTCACCAATG
Does B2 bind [1]?
Result: binds

B3: ERRE-like CRE 1 (dsDNA)
DNA 1: GGGTTCTGACCTCGGAGGG
DNA 2: CCCTCCGAGGTCAGAACCC
Does B3 bind [1]?
Result: binds

B4: ERRE-like CRE 4 (dsDNA)
DNA 1: CGATACAAGGTCAACGAGA
DNA 2: TCTCGTTGACCTTGTATCG
Does B4 bind [2]?
Result: binds
